The source of these data is patent publication US6770446B1, “Cell systems having specific interaction of peptide binding pairs” (Wyeth, priority 1994, dated 2004).

Assay [1] has as its target RGS-Z fused to the Gal4 activation domain (RGS-Z-pACT2) (yeast; human) (UniProt O76081). The assay is described as follows: cell-based or functional assay.
In assay [2] the target is KDR (Homo sapiens, UniProt P35968).
In assay [3] the target is T1, KChIP1 fused to the Gal4 activation domain (hKChIP1-pACT2) (yeast; human, UniProt Q9NZI2-2 1-216, limits assumed).
T1 sequence (looked up): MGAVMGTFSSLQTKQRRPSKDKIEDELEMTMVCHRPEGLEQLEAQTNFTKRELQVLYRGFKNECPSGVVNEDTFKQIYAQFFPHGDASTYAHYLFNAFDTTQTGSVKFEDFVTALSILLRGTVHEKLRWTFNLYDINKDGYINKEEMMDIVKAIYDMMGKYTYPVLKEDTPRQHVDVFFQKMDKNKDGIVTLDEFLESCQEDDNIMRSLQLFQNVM
Nature of the assay: cell-based or functional assay.

For assay [4], the target named is T2, PRL and PRLR fusion proteins (Sus scrofa, UniProt Q6JTA8, M232L/S231T).
T2 construct: flank the extracellular domain of the PRLR, encoding amino acids 1-229; expressed in transfected cells; host or cells: Saccharomyces cerevisiae (URA- derivative of Y190; strains CY786/CY787)
T2 sequence (Q6JTA8 with tags, fused parts or gaps): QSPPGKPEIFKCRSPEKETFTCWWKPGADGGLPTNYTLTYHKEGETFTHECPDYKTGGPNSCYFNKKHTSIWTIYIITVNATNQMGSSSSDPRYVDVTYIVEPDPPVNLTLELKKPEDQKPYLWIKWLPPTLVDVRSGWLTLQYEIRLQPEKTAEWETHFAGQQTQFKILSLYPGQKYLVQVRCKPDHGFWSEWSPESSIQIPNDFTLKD
Nature of the assay: Yeast two-hybrid competition assay: free peptide co-expressed with PRL and PRLR fusion proteins, growth on selective medium. It is filed as cell-based, porcine. The conditions noted are these: free peptide expressed from pCUP in a strain with PRL and PRLR fusions. An excerpt: To expand and validate this technology, a similar system was developed using the peptide hormone prolactin (PRL) and its receptor. Prolactin is structurally related to GH and the prolactin receptor (PRLR) is also a member of the cytokine receptor superfamily. […] Mature porcine PRL is generated as a fusion to the GAL4 activation domain. Oligonucleotides are designed to pig PRL (obtained from GenBank; […] No. X14068), and used to generate the mature pig PRL protein hormone from a pig pituitary lambda gt11 library, using standard PCR methods. A 31 base 5' oligonucleotide includes an EcoRI site ([NT] ID NO: 7) and corresponds to sequences encoding amino acids 1-7. A 30 base 3' oligonucleotide contains an EcoRI site ([NT] ID NO: 8) and corresponds to a region of cDNA 3' to the endogenous termination codon. A 600 bp fragment is obtained, ligated into vector pCR 11, and confirmed by restriction enzyme digest and sequence analysis. The PRL cDNA is cloned into pACT-II via the EcoRI site. The extracellular domain of the porcine PRL receptor (PRLR) is generated as a fusion to GAL4 DNA binding domain. Oligonucleotides are designed based on sequence of the mouse PRLR (Davis and Linzer, 1989) A 31 base 5' oligonucleotide contains a […] ID NO: 9) while the 31 base 3' oligonucleotide contains a termination codon followed by a […] ID NO: 10). […]

The target in assay [5] is T3, GH and GHR fusion proteins (Rattus norvegicus, UniProt P16310).
T3 construct: encoding amino acids 1-247 of the rat GHR (Baumbach et al., 1989); expressed in transfected cells; host or cells: Saccharomyces cerevisiae CY770 (URA- derivative of Y190)
T3 sequence (P16310 19-265): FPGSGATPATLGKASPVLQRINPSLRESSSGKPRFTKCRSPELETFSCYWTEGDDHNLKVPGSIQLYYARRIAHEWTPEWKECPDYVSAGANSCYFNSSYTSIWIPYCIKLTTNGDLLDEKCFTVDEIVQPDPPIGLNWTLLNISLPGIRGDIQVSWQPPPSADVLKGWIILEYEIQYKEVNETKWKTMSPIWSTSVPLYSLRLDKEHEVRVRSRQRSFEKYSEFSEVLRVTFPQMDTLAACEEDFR
Nature of the assay: Yeast two-hybrid competition assay: free peptide co-expressed with GH and GHR fusion proteins, growth on selective medium. It is filed as cell-based. Further details: key to Growth: +: scored for cell growth, indicated by a plus. The conditions noted are these: for Effect of co-expressed free peptide on GH-GHR-dependent cell growth on selective medium: free peptide expressed from pCUP in a strain with GH and GHR fusions.

The target of assay [6] is T4, extracellular domain of rat growth hormone receptor (GHR, amino acids 1-247) fused to the Gal4 DNA binding … (yeast; rat, UniProt P04386 1-147; P16310 19-265).
T4 construct: Expressed inside yeast (two-hybrid); also called GHR fusion; GHR-GAL4 fusion; not shown: polylinker residues of pAS2; not described
Nature of the assay: yeast two-hybrid, HIS3 growth on selective medium (strain CY722).

The target in assay [7] is T4, extracellular domain of rat growth …. The assay is described as follows: in vivo competition in yeast two-hybrid, free GH from pCUP (strain CY781).

Values joined by “and” are separate entries in the source; they are usually repeats but may differ in a detail not shown here. Equal entries are not always repeated.

Sequence of KDR (P35968 20-764 limits assumed): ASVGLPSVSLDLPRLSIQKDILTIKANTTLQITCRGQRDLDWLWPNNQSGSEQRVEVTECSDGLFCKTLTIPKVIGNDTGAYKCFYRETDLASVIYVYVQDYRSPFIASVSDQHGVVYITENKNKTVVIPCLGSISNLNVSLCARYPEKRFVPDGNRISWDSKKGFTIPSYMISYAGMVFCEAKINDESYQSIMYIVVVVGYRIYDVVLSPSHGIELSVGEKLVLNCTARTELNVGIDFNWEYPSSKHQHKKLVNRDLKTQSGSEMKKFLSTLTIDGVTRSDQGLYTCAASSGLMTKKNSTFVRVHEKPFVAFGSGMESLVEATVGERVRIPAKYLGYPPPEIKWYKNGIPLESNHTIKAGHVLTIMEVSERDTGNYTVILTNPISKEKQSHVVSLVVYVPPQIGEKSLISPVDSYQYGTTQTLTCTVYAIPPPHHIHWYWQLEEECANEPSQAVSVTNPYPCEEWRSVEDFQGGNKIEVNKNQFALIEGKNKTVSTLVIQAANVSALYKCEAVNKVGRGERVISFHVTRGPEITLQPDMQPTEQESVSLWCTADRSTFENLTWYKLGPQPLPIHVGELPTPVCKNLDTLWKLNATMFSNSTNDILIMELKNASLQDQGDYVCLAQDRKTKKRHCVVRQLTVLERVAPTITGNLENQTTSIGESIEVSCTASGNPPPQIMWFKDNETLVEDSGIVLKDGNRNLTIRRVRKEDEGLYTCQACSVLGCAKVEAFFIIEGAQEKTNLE
Sequence of KDR (P35968 20-764 limits assumed): as above

Regarding “constitutively active G-alphaZ Q205L fused to the Gal4 DNA binding domain (Q205L/GaZ-pGBKT7) (from UniProt P04386 1-147; P19086 1-355)”, in assay [1], the firefly luciferase activity, ybn66L in a 75:25 mix with ybn77L (OD 0.25 and 0.15) (luminescence units) amounted to 950000; the increase in Renilla luciferase activity, strain ybn70L came to 40 fold; the induction of luciferase activity, interaction strain (ybn66L) against control strains was 5 fold and 10 fold.

VEGF: the “Growth on selective media of strain expressing two KDR receptor fusion proteins plus free ligand” value in assay [2] is listed as “substantial growth on selective media”.

B1: N-terminus of the potassium channel 4.3 (hKv4.3N) fused to the Gal4 DNA binding domain (hKv4.3N-pGBT9) (other, yeast;human, UniProt P04386 1-147, looked up)
chain: MKLLSSIEQACDICRLKKLKCSKEKPKCAKCLKNNWECRYSPKTKRSPLTRAHLTEVESRLERLEQLFLLIFPREDLDMILKMDSLQDIKALLTGLFVQDNVNKDAVTDRLASVETDMPLTLRQHRISATSSSEESSNKGQRQLTVSMAAGVAAWLPFARAAAIGWMPVANCPMPLAPADKNKRQDELIVLNVSGRRFQTWRTTLERYPDTLLGSTEKEFFFNEDTKEYFFDRDPEVFRCVLNFYRTGKLHYPRYECISAYDDELAFYGILPEIIGDCCYEEYKDRKRENAERLMDDNDSENNQESMPSLSFRQTMWRAFENPHTST
With B1, in assay [3], the “increase in Renilla luciferase activity, strain ybn77L” value is 25 fold; the “increase in luciferase activity (Gal1/10-luciferase reporter), both fusions against one fusion plus empty vector” value is 30 fold; the “increase in luciferase activity (low copy CEN Gal-luciferase reporter Kp132), test strain against negative control strain” value turned out to be 100 fold.

B2: PRL: mature porcine prolactin expressed as free peptide from pCUP plasmid (protein)
chain: LPICPSGAVNCQVSLRDLFDRAVILSHYIHNLSSEMFNEFDKRYAQGRGFITKAINSCHTSSLSTPEDKEQAQQIHHEVLLNLILRVLRSWNDPLYHLVTEVRGMQEAPDAILSRAIEIEEQNKRLLEGMEKIVGQVHPGIKENEVYSVWSGLPSLQMADEDTRLFAFYNLLHCLRRDSHKIDNYLKLLKCRIIYDSNC
modifications: left off: large carriers; small tags and cut ends
notes: mature porcine prolactin expressed as free peptide from pCUP plasmid
For B2, the “Effect of co-expressed free peptide on PRL-PRLR-dependent cell growth on selective medium” value in assay [4] is reported as “growth is abrogated”. In addition, the “Effect of co-expressed free peptide on GH-GHR-dependent cell growth on selective medium” value in assay [5] is on record as “grows on selective medium”. Also, the Growth entry in assay [5] (strain with GH and GHR fusions plus free peptide expressed from pCUP, selective medium, 3 to 5 days at 30 C) is recorded as “+”.

B3: porcine growth hormone (GH) fused to the Gal4 activation domain (GH in pACT-II) (ligand, UniProt P01248 27-216, looked up, not shown: large carriers; small tags and cut ends)
chain: FPAMPLSSLFANAVLRAQHLHQLAADTYKEFERAYIPEGQRYSIQNAQAAFCFSETIPAPTGKDEAQQRSDVELLRFSLLLIQSWLGPVQFLSRVFTNSLVFGTSDRVYEKLKDLEEGIQALMRELEDGSPRAGQILKQTYDKFDTNLRSDDALLKNYGLLSCFKKDLHKAETYLRVMKCRRFVESSCAF
notes: mature; Expressed inside yeast (two-hybrid); also called GH-Gal4 fusion protein; GH fusion
On to B3, for which the binding result in assay [6] is “binds”.

B4: GH: mature porcine growth hormone expressed as free ligand from pCUP plasmid (protein, UniProt P01248 27-216, looked up)
Somatotropin: B3 chain
As to B4, the “Effect of co-expressed free peptide on GH-GHR-dependent cell growth on selective medium” value in assay [5] is listed as “block GH-GHR-dependent cell growth on selective medium”.

B5: free porcine growth hormone expressed from pCUP (GH-pCUP) (ligand, UniProt P01248 27-216, looked up)
chain: B3 chain
notes: mature; Non-fusion GH; also called free GH; free ligand
Take B5: the binding result in assay [7] is on record as “binds”.
